Test results from US20030235557A1.

B1: WT1 peptide p225-233 … (peptide)
peptide: NLYQMTSQL
B2: WT1 peptide p239-247 … (peptide)
peptide: NQMNLGATL
B3: WT1 peptide p235-243 … (peptide)
peptide: CMTWNQMNL
B4: WT1 peptide human p10-18 … (peptide)
peptide: ALLPAVPSL
B5: WT1 peptide p221-229 … (peptide)
peptide: YSSDNLYQM
B6: WT1 peptide p329-337 … (peptide)
peptide: GCNKRYFKL
B7: WT1 peptide human p136-144 … (peptide)
peptide: SCLESQPAI
B8: WT1 peptide p228-236 … (peptide)
peptide: QMTSQLECM
B9: WT1 peptide P125-133 … (peptide)
peptide: ARMFPNAPY
B10: WT1 peptide P130-138 … (peptide)
peptide: NAPYLPSCL
B11: WT1 peptide P117-125 … (peptide)
peptide: PSQASSGQA
B12: WT1 peptide P120-128 … (peptide)
peptide: ASSGQARMF
B13: WT1 peptide P128-136 … (peptide)
peptide: FPNAPYLPS
B14: WT1 peptide P129-137 … (peptide)
peptide: PNAPYLPSC
B15: WT1 peptide P131-139 … (peptide)
peptide: APYLPSCLE
B16: WT1 peptide P127-135 … (peptide)
peptide: MFPNAPYLP
B17: WT1 peptide P124-132 … (peptide)
peptide: QARMFPNAP
B18: WT1 peptide P118-126 … (peptide)
peptide: SQASSGQAR
B19: WT1 peptide P119-127 … (peptide)
peptide: QASSGQARM
B20: WT1 peptide P121-129 … (peptide)
peptide: SSGQARMFP

Target: mouse B6 class I antigens (D^b or K^b molecules on the surface of RMA-S cells) (mouse (C57Bl/6))
Assay: RMA-S class I stabilisation, peptide 25 ug/ml, flow cytometry with FITC anti-D^b or anti-K^b

Sequence of mouse B6 class I antigens (D^b or K^b molecules on the surface of RMA-S cells) (mouse (C57Bl/6)) (P01899 25-362, chain 1 of 2): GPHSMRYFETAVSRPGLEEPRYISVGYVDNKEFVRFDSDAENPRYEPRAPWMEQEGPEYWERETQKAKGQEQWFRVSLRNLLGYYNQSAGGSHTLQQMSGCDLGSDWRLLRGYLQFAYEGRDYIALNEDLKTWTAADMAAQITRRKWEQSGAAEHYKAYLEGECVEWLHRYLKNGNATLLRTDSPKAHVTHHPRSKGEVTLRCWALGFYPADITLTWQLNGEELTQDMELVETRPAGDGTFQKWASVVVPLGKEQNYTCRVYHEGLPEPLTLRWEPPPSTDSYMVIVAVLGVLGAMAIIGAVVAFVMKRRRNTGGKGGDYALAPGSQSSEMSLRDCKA
Sequence of mouse B6 class I antigens (D^b or K^b molecules on the surface of RMA-S cells) (mouse (C57Bl/6)) (P01887 21-119, chain 2 of 2, further chain): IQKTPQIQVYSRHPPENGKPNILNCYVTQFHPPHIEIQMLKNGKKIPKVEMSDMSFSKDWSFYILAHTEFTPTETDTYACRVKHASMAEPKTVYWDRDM

Row | Binder | Binding Affinity to Mouse MHC Class I (% increase of D^b or K^b on RMA-S cells) [%]
1 | B1 | 5.8
2 | B2 | 1
3 | B3 | 33.6
4 | B4 | 2.2
5 | B5 | 0.8
6 | B6 | 1.2
7 | B7 | 52
8 | B8 | 1.2

Target: mouse B6 class I antigens (D^b or K^b molecules on the surface of RMA-S cells) (mouse (C57Bl/6))
Assay: binding of 9mer peptides within p117-139 to mouse B6 (H-2^b) class I, RMA-S assay as in Example 4

Row | Binder | Binding Affinity to Mouse MHC Class I [%]
9 | B9 | 1
10 | B10 | 79
11 | B11 | 2
12 | B12 | 1
13 | B13 | 1
14 | B14 | 1
15 | B15 | 1
16 | B16 | 2
17 | B17 | 1
18 | B18 | 2
19 | B19 | 2
20 | B20 | 1
